Patent US20090291081A1 (AbbVie / Abbott, published 2009)

Target: T1, human IL-1β (human, UniProt P01584 117-269)
T1 construct: antigen of the ABT2 dAbs; also called hIL-1β; IL-1 beta
Assay: IC50 column of Table 63; receptor binding assay presumed

| Binder | IC50 |
| --- | --- |
| ABT2-65-137 (other, VH dAb) VH: EVQLLESGGGLVQPGGSLRLSCAASGFTFEDYQMGWVRQAPGKGLEWVSSISAMGNRTYYADSVKGRFTISRDDSKNTLYLQMNSLRAEDTAVYYCAENLVRTAKRRWMFDYWGQGTLVTVSS | 5 nM |
| ABT2-65-135 (other, VH dAb) VH: EVQLLESGGGLVQPGGSLRLSCAASGFTFEDYQMGWVRQAPGKGLEWVSSISAMGNRTYYADSVKGRFTISRDDSKNTLYLQMNSLRAEDTAVYYCAENLVRIKKMKWMFDYWGQGTLVTVSS | 5 nM |
| ABT2-65-118 (other, VH dAb) VH: EVQLLESGGGLVQPGGSLRLSCAASGFTFATYTMGWVRQAPGKGLEWVSSISAMGNRTYYADSVKGRFTISRDDSKNTLYLQMNSLRAEDTAVYYCAQNLVRLGRSRWMFDYWGQGTLVTVSS | 4.6 nM |
| ABT2-65-156 (other, VH dAb) VH: EVQLLESGGGLVQPGGSLRLSCAASGFTFEDYQMGWVRQAPGKGLEWVSSISAMGNRTYYADSVKGRFTISRDDSKNTLYLQMNSLRAEDTAVYYCAQNLVRIGRNKWMFDYWGQGTLVTVSS | 5 nM |
| ABT2-65-127 (other, VH dAb) VH: EVQLLESGGGLVQPGGSLRLSCVASGFTFEDYQMGWVRQAPGKGLEWVTSISAMGNRTYYADSVKGRFTISRDDSKNTLYLQMNSLRAEDTAVYYCAQNLVRLGRSRWMFDYWGQGTLVTVSS | 5.5 nM |
| ABT2-65-148 (other, VH dAb) VH: EVQLLESGGGLVQPGGSLRLSCAASGFTFEDYQMGWVRQAPGKGLEWVSSISAMGNRTYYADSVKGRFTISRDDSKNTLYLQMNSLRAEDTAVYYCAQNLVRLGSKRWMFDYWGQGTLVTVSS | 4 nM |
| ABT2-65-131 (other, VH dAb) VH: EVQLLESGGGLVQPRGSLRLSCVASGFTFEDYQMGWVRQAPGKGLEWVSSISTMGNRTYYADSVKGRFTISRDDSKNTLYLQMNSLRAEDTAVYHCAQNLVRLGRSRWMFDYWGQGTLVTVSS | 13.2 nM |
| ABT2-65-119 (other, VH dAb) VH: EVQLLESGGGLVQPGGSLRLSCAASGFTFIAYPMGWVRQAPGKGLEWVSSISAMGNRTYYADSVKGRFTISRDDSKNTLYLQMNSLRAEDTAVYYCAQNLVRLGRSRWMFDYWGQGTLVTVSS | 4 nM |
| ABT2-65-152 (other, VH dAb) VH: EVQLLESGGGLVQPGGSLRLSCAASGFTFEDYQMGWVRQAPGKGLEWVSSISAMGNRTYYADSVKGRFTISRDDSKNTLYLQMNSLRAEDTAVYYCAENLVRWKSSAWMFDYWGQGTLVTVSS | 5 nM |
| ABT2-65-151 (other, VH dAb) VH: EVQLLESGGGLVQPGGSLRLSCAASGFTFEDYQMGWVRQAPGKGLEWVSSISAMGNRTYYADSVKGRFTISRDDSKNTLYLQMNSLRAEDTAVYYCAENLVRWRKHAWMFDYWGQGTLVTVSS | 6 nM |
| ABT2-65-115 (other, VH dAb) VH: EVQLLESGGGLVQPGGSLRLSCAASGFTFIDYQMGWVRQAPGKGLEWVSSISAMGNRTYYADSVKGRFTISRDDSKNTLYLQMNSLRAEDTAVYYCAQNLVRLGRSRWMFDYWGQGTLVTVSS | 4 nM |
| ABT2-65-133 (other, VH dAb) VH: EVQLLESGGGLVQPGGSLRLSCAASGFTFEDYQMGWVRQAPGKGLEWVSSISAMGNRTYYADSVKGRFTISRDDSKNTLYLQMNSLRAEDTAVYYCAENLVHWKRGGWMFDYWGQGTLVTVSS | 30 nM |
| ABT2-65-121 (other, VH dAb) VH: EVQLLESGGGLVQPGGSLRLSCVASGFTFEDYQMGWVRQAPGKGLEWVSSIAAHGNRTYYADSVKGRFTISRDDSKNTLYLQMNSLRAEDTAVYYCAQNLVRLGRSRWMFDYWGQGTLVTVSS | 3.9 nM |
| ABT2-65-138 (other, VH dAb) VH: EVQLLESGGGLVQPGGSLRLSCAASGFTFEDYQMGWVRQAPGKGLEWVSSISAMGNRTYYADSVKGRFTISRDDSKNTLYLQMNSLRAEDTAVYYCAENLVRVTARKWMFDYWGQGTLVTVSS | 5 nM |
| ABT2-65-90 (other, VH dAb) VH: EVQLLESGGGLVQPGGSLRLSCVASGFTFEDYQMGWVRQAPGKGQEWVSSISAMGNRTYYADSVKGRFTISRDDSKNTLYLQMNSLRAEDTAVYYCAQNLVRLGRSRWMFDYWGHGTLVTVSS | 300 nM |
| ABT2-65-158 (other, VH dAb) VH: EVQLLESGGGLVQPGGSLRLSCAASGFTFEDYQMGWVRQAPGKGLEWVSSISAMGNRTYYADSVKGRFTISRDDSKNTLYLQMNSLRAEDTAVYYCAQNLVKWKRDFWMFDYWGQGTLVTVSS | 5 nM |
| ABT2-65-120 (other, VH dAb) VH: EVQLLESGGGLVQPGGSLRLSCVASGFTFEDYQMGWVRQAPGKGLEWVSSISAMGMRTYYADSVKGRFTISRDDSKNTLYLQMNSLRAEDTAVYYCAQNLVRLGRSRWMFDYWGQGTLVTVSS | 4.2 nM |

Continued by falling IC50, values first:

| IC50 | Binder |
| --- | --- |
| 50 nM | ABT2-65-87 (other, VH dAb) VH: EVQLLESGGGLVQPGGSLRLSCVASGFTFEDYQMGWVRQAPGKDLEWVSSISAMGNRTYYADSVKGRFTISRDDSKNTLYLQMNSLRAEDTAVYYCAQNLVRLGRSRWMFDYWGQGTLVTVSS |
| 10 nM | ABT2-65-117 (other, VH dAb) VH: EVQLLESGGGLVRPGGSLRLSCVASGFTFEDYQMGWVRQAPGKGLEWISSISAMGNRTYYADSVKGRFTISRDDSKNTLYLQMNSLRAEDTAVYYCAQNLVRLGRSRWMFDYWGQGTLVTVSS |
| 6 nM | ABT2-65-146 (other, VH dAb) VH: EVQLLESGGGLVQPGGSLRLSCAASGFTFEDYQMGWVRQAPGKGLEWVSSISAMGNRTYYADSVKGRFTISRDDSKNTLYLQMNSLRAEDTAVYYCAENLVRTMKRKWMFDYWGQGTLVTVSS |
| 6 nM | ABT2-65-144 (other, VH dAb) VH: EVQLLESGGGLVQPGGSLRLSCAASGFTFEDYQMGWVRQAPGKGLEWVSSISAMGNRTYYADSVKGRFTISRDDSKNTLYLQMNSLRAEDTAVYYCAENLVRISKKQWMFDYWGQGTLVTVSS |
| 5 nM | ABT2-65-132 (other, VH dAb) VH: EVQLLESGGGLVQPGGSLRLSCAASGFTFEDYQMGWVRQAPGKGLEWVSSISAMGNRTYYADSVKGRFTISRDDSKNTLYLQMNSLRAEDTAVYYCAENLVRLASRRWMFDYWGQGTLVTVSS |
| 5 nM | ABT2-65-145 (other, VH dAb) VH: EVQLLESGGGLVQPGGSLRLSCAASGFTFEDYQMGWVRQAPGKGLEWVSSISAMGNRTYYADSVKGRFTISRDDSKNTLYLQMNSLRAEDTAVYYCAENLVRIQKVKWMFDYWGQGTLVTVSS |
| 5 nM | ABT2-65-141 (other, VH dAb) VH: EVQLLESGGGLVQPGGSLRLSCAASGFTFEDYQMGWVRQAPGKGLEWVSSISAMGNRTYYADSVKGRFTISRDDSKNTLYLQMNSLRAEDTAVYYCAENLVRIKQTKWMFDYWGQGTLVTVSS |
| 5 nM | ABT2-65-143 (other, VH dAb) VH: EVQLLESGGGLVQPGGSLRLSCAASGFTFEDYQMGWVRQAPGKGLEWVSSISAMGNRTYYADSVKGRFTISRDDSKNTLYLQMNSLRAEDTAVYYCAENLVRLQRDRWMFDYWGQGTLVTVSS |
| 5 nM | ABT2-65-155 (other, VH dAb) VH: EVQLLESGGGLVQPGGSLRLSCAASGFTFEDYQMGWVRQAPGKGLEWVSSISAMGNRTYYADSVKGRFTISRDDSKNTLYLQMNSLRAEDTAVYYCAQNLVLVQRRKWMFDYWGQGTLVTVSS |
| 4.3 nM | ABT2-65-126 (other, VH dAb) VH: EVQLLESGGGLVQPGGSLRISCVTSGFTFEDYQMGWVRQAPGKGLEWVSSISAMGNRTYYADSVKGRFTISRDDSKNTLNLQMNSLRAEDTAVYYCAQNLVRLGRSRWVFDYWGQGTLVTVSS |
| 4.3 nM | ABT2-65-130 (other, VH dAb) VH: EVQLLESGGGLVQPGGSLRLSCVASGFTFEDYQMGWVRQAPGKGLEWVSSISAMVNRTYYADSVKGRFTISRDDSKNTLYLQMNSLRAEDTAVYYCAQNLVRLGRSRWMFDYWGQGTLVTVSS |
| 4 nM | ABT2-65-114 (other, VH dAb) VH: EVQLLESGGGLVQPGGSLRLSCAASGFTFREYMMGWVRQAPGKGLEWVSSISAMGNRTYYADSVKGRFTISRDDSKNTLYLQMNSLRAEDTAVYYCAQNLVRLGRSRWMFDYWGQGTLVTVSS |
| 4 nM | ABT2-65-139 (other, VH dAb) VH: EVQLLESGGGLVQPGGSLRLSCAASGFTFEDYQMGWVRQAPGKGLEWVSSISAMGNRTYYADSVKGRFTISRDDSKNTLYLQMNSLRAEDTAVYYCAQNLVRVRVRRWMFDYWGQGTLVTVSS |
| 4 nM | ABT2-65-125 (other, VH dAb) VH: EVQLLESGGGLVQPGGSLRLSCVASGFTFEDYQMGWVRQAPGKGLEWISSISAMGNRTYYADSVKGRFTISRDDSKNTLYLQMNSLRAEDTAVYYCAQNLVRLGRSRWMFDYWGQGTLVTVSS |
| 4 nM | ABT2-65-149 (other, VH dAb) VH: EVQLLESGGGLVQPGGSLRLSCAASGFTFEDYQMGWVRQAPGKGLEWVSSISAMGNRTYYADSVKGRFTISRDDSKNTLYLQMNSLRAEDTAVYYCAENLVRVDRRRWMFDYWGQGTLVTVSS |
| 3.8 nM | ABT2-65-124 (other, VH dAb) VH: EVQLLESGGGLVQPGGSLRLSCVASGFTFEDYQMGWVRQAPGKGLEWVSSISAVGNRTYYADSVKGRFTISRDDSKNTLYLQMNSLRAEDIAVYYCAQNLVRLGRSRWMFDYWGQGTLVTVSS |
| 3.4 nM | ABT2-65-129 (other, VH dAb) VH: EVQLLESGGGLVQPGGSLRLSCVASGFTFEDYQMGWVRQAPGKGLEWVSTVSAMGNRTYYADSMKGRFTISRDDSKNTLYLQMNSLRAEDTAVYYCAQNLVRLGRSRWMFDYWGQGTLVTVSS |
